Patent US20140087995A1 (published 2014)
Numbered stars: 1 amine (or outer) side, 2 acyl side, 3 side chain; on linkers, the order of the positions; unused ones are H or OH. Bridge positions count the residues as written; N and C are the ends. Side chains are listed from the residue outwards. Ends that are not written are not given here. * marks the point of attachment. C20 diacid = O=C(O)CCCCCCCCCCCCCCCCCCC(=O)*; γGlu = O=C(O)[C@H](CCC(=O)[*:2])N[*:1]

Columns and labels:
[1] = biological target: T1, human calcitonin receptor (human, UniProt P30988 25-474); test: cell-based or functional assay
T1 sequence (looked up): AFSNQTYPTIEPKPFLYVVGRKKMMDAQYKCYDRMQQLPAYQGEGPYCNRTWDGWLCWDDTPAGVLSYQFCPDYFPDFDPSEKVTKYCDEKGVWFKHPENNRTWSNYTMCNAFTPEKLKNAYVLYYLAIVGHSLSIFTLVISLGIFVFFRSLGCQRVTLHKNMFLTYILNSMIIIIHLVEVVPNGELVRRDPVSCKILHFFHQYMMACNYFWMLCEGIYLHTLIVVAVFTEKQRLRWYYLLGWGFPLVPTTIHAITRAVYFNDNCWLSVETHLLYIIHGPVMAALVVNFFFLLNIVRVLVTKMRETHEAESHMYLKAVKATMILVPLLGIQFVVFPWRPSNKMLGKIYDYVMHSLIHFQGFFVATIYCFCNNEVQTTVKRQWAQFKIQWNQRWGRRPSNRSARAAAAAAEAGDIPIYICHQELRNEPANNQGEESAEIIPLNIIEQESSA

[2] = biological target: T2, human amylin 3(a) receptor (human calcitonin receptor co-expressed with RAMP-3) (human, UniProt P30988 25-474; O60896 24-148, limits assumed); test: cell-based or functional assay
T2 sequence (looked up) 1: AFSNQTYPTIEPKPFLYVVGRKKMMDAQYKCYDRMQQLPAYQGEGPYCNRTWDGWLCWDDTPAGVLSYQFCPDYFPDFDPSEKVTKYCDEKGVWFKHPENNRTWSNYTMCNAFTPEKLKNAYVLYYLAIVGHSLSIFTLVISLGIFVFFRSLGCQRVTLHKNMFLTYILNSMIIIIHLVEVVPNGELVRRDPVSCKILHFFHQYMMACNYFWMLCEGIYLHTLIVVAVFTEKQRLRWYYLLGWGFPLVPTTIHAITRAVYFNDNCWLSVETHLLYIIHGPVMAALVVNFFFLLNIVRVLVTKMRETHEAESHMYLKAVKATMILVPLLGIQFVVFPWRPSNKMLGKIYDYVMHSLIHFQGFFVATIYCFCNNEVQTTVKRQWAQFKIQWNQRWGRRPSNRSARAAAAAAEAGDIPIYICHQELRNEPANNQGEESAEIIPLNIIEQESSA
T2 sequence (looked up) 2: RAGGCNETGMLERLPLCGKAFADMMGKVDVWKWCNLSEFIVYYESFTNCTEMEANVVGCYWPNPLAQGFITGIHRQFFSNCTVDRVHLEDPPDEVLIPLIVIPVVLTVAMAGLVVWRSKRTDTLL

Binder	Ratio hCT/hAmylin funct. [1]	hCTR funct. EC50 [1] [nM]	hAmylin-R funct. EC50 [2] [nM]
K([γGlu-C20 diacid])CNTATCATQRLAEFLRHSSPNFGAIPSSTNVGPRTY-NH2 (disulfide 2-7; N-terminus assumed; SMILES CC[C@H](C)[C@H](NC(=O)[C@H](C)NC(=O)CNC(=O)[C@H](Cc1ccccc1)NC(=O)[C@H](CC(N)=O)NC(=O)[C@@H]1CCCN1C(=O)[C@H](CO)NC(=O)[C@H](CO)NC(=O)[C@H](Cc1c[nH]cn1)NC(=O)[C@H](CCCNC(=N)N)NC(=O)[C@H](CC(C)C)NC(=O)[C@H](Cc1ccccc1)NC(=O)[C@H](CCC(=O)O)NC(=O)[C@H](C)NC(=O)[C@H](CC(C)C)NC(=O)[C@H](CCCNC(=N)N)NC(=O)[C@H](CCC(N)=O)NC(=O)[C@@H](NC(=O)[C@H](C)NC(=O)[C@@H]1CSSC[C@H](NC(=O)[C@@H](N)CCCCNC(=O)CC[C@H](NC(=O)CCCCCCCCCCCCCCCCCCC(=O)O)C(=O)O)C(=O)N[C@@H](CC(N)=O)C(=O)N[C@@H]([C@@H](C)O)C(=O)N[C@@H](C)C(=O)N[C@@H]([C@@H](C)O)C(=O)N1)[C@@H](C)O)C(=O)N1CCC[C@H]1C(=O)N[C@@H](CO)C(=O)N[C@@H](CO)C(=O)N[C@H](C(=O)N[C@@H](CC(N)=O)C(=O)N[C@H](C(=O)NCC(=O)N1CCC[C@H]1C(=O)N[C@@H](CCCNC(=N)N)C(=O)N[C@H](C(=O)N[C@@H](Cc1ccc(O)cc1)C(N)=O)[C@@H](C)O)C(C)C)[C@@H](C)O)	17	6.38	0.376
K([γGlu-C20 diacid])CNTATCATQRLAHFLRHSSPNFGAIPSSTNVGHNTY-NH2 (disulfide 2-7; N-terminus assumed; SMILES CC[C@H](C)[C@H](NC(=O)[C@H](C)NC(=O)CNC(=O)[C@H](Cc1ccccc1)NC(=O)[C@H](CC(N)=O)NC(=O)[C@@H]1CCCN1C(=O)[C@H](CO)NC(=O)[C@H](CO)NC(=O)[C@H](Cc1c[nH]cn1)NC(=O)[C@H](CCCNC(=N)N)NC(=O)[C@H](CC(C)C)NC(=O)[C@H](Cc1ccccc1)NC(=O)[C@H](Cc1c[nH]cn1)NC(=O)[C@H](C)NC(=O)[C@H](CC(C)C)NC(=O)[C@H](CCCNC(=N)N)NC(=O)[C@H](CCC(N)=O)NC(=O)[C@@H](NC(=O)[C@H](C)NC(=O)[C@@H]1CSSC[C@H](NC(=O)[C@@H](N)CCCCNC(=O)CC[C@H](NC(=O)CCCCCCCCCCCCCCCCCCC(=O)O)C(=O)O)C(=O)N[C@@H](CC(N)=O)C(=O)N[C@@H]([C@@H](C)O)C(=O)N[C@@H](C)C(=O)N[C@@H]([C@@H](C)O)C(=O)N1)[C@@H](C)O)C(=O)N1CCC[C@H]1C(=O)N[C@@H](CO)C(=O)N[C@@H](CO)C(=O)N[C@H](C(=O)N[C@@H](CC(N)=O)C(=O)N[C@H](C(=O)NCC(=O)N[C@@H](Cc1c[nH]cn1)C(=O)N[C@@H](CC(N)=O)C(=O)N[C@H](C(=O)N[C@@H](Cc1ccc(O)cc1)C(N)=O)[C@@H](C)O)C(C)C)[C@@H](C)O, also called compound 81)	13.3	1.73	0.13
K([γGlu-C20 diacid])CNTATCATQRLAHFLRHSSPNFGAIPSSTNVGRNTY-NH2 (disulfide 2-7; N-terminus assumed; SMILES CC[C@H](C)[C@H](NC(=O)[C@H](C)NC(=O)CNC(=O)[C@H](Cc1ccccc1)NC(=O)[C@H](CC(N)=O)NC(=O)[C@@H]1CCCN1C(=O)[C@H](CO)NC(=O)[C@H](CO)NC(=O)[C@H](Cc1c[nH]cn1)NC(=O)[C@H](CCCNC(=N)N)NC(=O)[C@H](CC(C)C)NC(=O)[C@H](Cc1ccccc1)NC(=O)[C@H](Cc1c[nH]cn1)NC(=O)[C@H](C)NC(=O)[C@H](CC(C)C)NC(=O)[C@H](CCCNC(=N)N)NC(=O)[C@H](CCC(N)=O)NC(=O)[C@@H](NC(=O)[C@H](C)NC(=O)[C@@H]1CSSC[C@H](NC(=O)[C@@H](N)CCCCNC(=O)CC[C@H](NC(=O)CCCCCCCCCCCCCCCCCCC(=O)O)C(=O)O)C(=O)N[C@@H](CC(N)=O)C(=O)N[C@@H]([C@@H](C)O)C(=O)N[C@@H](C)C(=O)N[C@@H]([C@@H](C)O)C(=O)N1)[C@@H](C)O)C(=O)N1CCC[C@H]1C(=O)N[C@@H](CO)C(=O)N[C@@H](CO)C(=O)N[C@H](C(=O)N[C@@H](CC(N)=O)C(=O)N[C@H](C(=O)NCC(=O)N[C@@H](CCCNC(=N)N)C(=O)N[C@@H](CC(N)=O)C(=O)N[C@H](C(=O)N[C@@H](Cc1ccc(O)cc1)C(N)=O)[C@@H](C)O)C(C)C)[C@@H](C)O, also called compound 85)	26.6	3.88	0.146
K([γGlu-C20 diacid])CNTATCATQRLAEFLRHSSPNFGAIPSSTNVGPETY-NH2 (disulfide 2-7; N-terminus assumed; SMILES CC[C@H](C)[C@H](NC(=O)[C@H](C)NC(=O)CNC(=O)[C@H](Cc1ccccc1)NC(=O)[C@H](CC(N)=O)NC(=O)[C@@H]1CCCN1C(=O)[C@H](CO)NC(=O)[C@H](CO)NC(=O)[C@H](Cc1c[nH]cn1)NC(=O)[C@H](CCCNC(=N)N)NC(=O)[C@H](CC(C)C)NC(=O)[C@H](Cc1ccccc1)NC(=O)[C@H](CCC(=O)O)NC(=O)[C@H](C)NC(=O)[C@H](CC(C)C)NC(=O)[C@H](CCCNC(=N)N)NC(=O)[C@H](CCC(N)=O)NC(=O)[C@@H](NC(=O)[C@H](C)NC(=O)[C@@H]1CSSC[C@H](NC(=O)[C@@H](N)CCCCNC(=O)CC[C@H](NC(=O)CCCCCCCCCCCCCCCCCCC(=O)O)C(=O)O)C(=O)N[C@@H](CC(N)=O)C(=O)N[C@@H]([C@@H](C)O)C(=O)N[C@@H](C)C(=O)N[C@@H]([C@@H](C)O)C(=O)N1)[C@@H](C)O)C(=O)N1CCC[C@H]1C(=O)N[C@@H](CO)C(=O)N[C@@H](CO)C(=O)N[C@H](C(=O)N[C@@H](CC(N)=O)C(=O)N[C@H](C(=O)NCC(=O)N1CCC[C@H]1C(=O)N[C@@H](CCC(=O)O)C(=O)N[C@H](C(=O)N[C@@H](Cc1ccc(O)cc1)C(N)=O)[C@@H](C)O)C(C)C)[C@@H](C)O)	5.2	0.841	0.161
K([γGlu-γGlu-C20 diacid])CNTATCATQRLANFLRHSSPNFGAIPSSTNVGHNTY-NH2 (disulfide 2-7; N-terminus assumed; SMILES CC[C@H](C)[C@H](NC(=O)[C@H](C)NC(=O)CNC(=O)[C@H](Cc1ccccc1)NC(=O)[C@H](CC(N)=O)NC(=O)[C@@H]1CCCN1C(=O)[C@H](CO)NC(=O)[C@H](CO)NC(=O)[C@H](Cc1c[nH]cn1)NC(=O)[C@H](CCCNC(=N)N)NC(=O)[C@H](CC(C)C)NC(=O)[C@H](Cc1ccccc1)NC(=O)[C@H](CC(N)=O)NC(=O)[C@H](C)NC(=O)[C@H](CC(C)C)NC(=O)[C@H](CCCNC(=N)N)NC(=O)[C@H](CCC(N)=O)NC(=O)[C@@H](NC(=O)[C@H](C)NC(=O)[C@@H]1CSSC[C@H](NC(=O)[C@@H](N)CCCCNC(=O)CC[C@H](NC(=O)CC[C@H](NC(=O)CCCCCCCCCCCCCCCCCCC(=O)O)C(=O)O)C(=O)O)C(=O)N[C@@H](CC(N)=O)C(=O)N[C@@H]([C@@H](C)O)C(=O)N[C@@H](C)C(=O)N[C@@H]([C@@H](C)O)C(=O)N1)[C@@H](C)O)C(=O)N1CCC[C@H]1C(=O)N[C@@H](CO)C(=O)N[C@@H](CO)C(=O)N[C@H](C(=O)N[C@@H](CC(N)=O)C(=O)N[C@H](C(=O)NCC(=O)N[C@@H](Cc1c[nH]cn1)C(=O)N[C@@H](CC(N)=O)C(=O)N[C@H](C(=O)N[C@@H](Cc1ccc(O)cc1)C(N)=O)[C@@H](C)O)C(C)C)[C@@H](C)O, also called compound 86)	64.4	19.2	0.298
K([γGlu-C20 diacid])CNTATCATQRLAHFLRHSSPNFGAIPSSTPVGPNTY-NH2 (disulfide 2-7; N-terminus assumed; SMILES CC[C@H](C)[C@H](NC(=O)[C@H](C)NC(=O)CNC(=O)[C@H](Cc1ccccc1)NC(=O)[C@H](CC(N)=O)NC(=O)[C@@H]1CCCN1C(=O)[C@H](CO)NC(=O)[C@H](CO)NC(=O)[C@H](Cc1c[nH]cn1)NC(=O)[C@H](CCCNC(=N)N)NC(=O)[C@H](CC(C)C)NC(=O)[C@H](Cc1ccccc1)NC(=O)[C@H](Cc1c[nH]cn1)NC(=O)[C@H](C)NC(=O)[C@H](CC(C)C)NC(=O)[C@H](CCCNC(=N)N)NC(=O)[C@H](CCC(N)=O)NC(=O)[C@@H](NC(=O)[C@H](C)NC(=O)[C@@H]1CSSC[C@H](NC(=O)[C@@H](N)CCCCNC(=O)CC[C@H](NC(=O)CCCCCCCCCCCCCCCCCCC(=O)O)C(=O)O)C(=O)N[C@@H](CC(N)=O)C(=O)N[C@@H]([C@@H](C)O)C(=O)N[C@@H](C)C(=O)N[C@@H]([C@@H](C)O)C(=O)N1)[C@@H](C)O)C(=O)N1CCC[C@H]1C(=O)N[C@@H](CO)C(=O)N[C@@H](CO)C(=O)N[C@H](C(=O)N1CCC[C@H]1C(=O)N[C@H](C(=O)NCC(=O)N1CCC[C@H]1C(=O)N[C@@H](CC(N)=O)C(=O)N[C@H](C(=O)N[C@@H](Cc1ccc(O)cc1)C(N)=O)[C@@H](C)O)C(C)C)[C@@H](C)O)	4.9	0.345	0.071
